Results on 4 molecules are retold here after patent publication US20240002497A1 (Merck Sharp & Dohme, published 2024).

For orientation: EC50 means the concentration that produces a half-maximal response. The IC50 is the point on the concentration scale where inhibition reaches its midpoint.

The target of assay [1] is T1, huNav1.7α(E281V) + β1-β2-β3 (human).
T1 construct: polyprotein as encoded; the entry already carries E281V; also called huNav1.7(E281V)-beta1-beta2-beta3
The assay can be described thus: binding FACS, CHO FlpIn cells. The protocol: (§1) Binding of the ISVDs to cell-expressed Nav1.7α was detected via murine anti-Flag (Sigma, catalog #F1804). Briefly, cells were resuspended in FACS buffer (PBS, 10% FBS, NaN₃) and transferred to a 96-well V-bottom plate at 1×10^5 cells/well. Purified FLAG3-tagged ISVD was diluted in FACS buffer and added to the cells for 30 minutes at 4° C. […] Prior to the read-out, the samples were resuspended in 1 μg/mL propidium iodide (Sigma, catalog #P4170) to exclude dead cells. Between each step, the cells were centrifuged for 5 minutes at 200 grams and washed with 100 μL/well FACS buffer.
(§2) Based on the huNav1.7α model (as described above) the following huNav1.7α-rhNav1.7α polymorphisms can be allocated to the extracellular part of DI: N146S, F276V, R277Q, E281V and V331M. The first of the residues is in DI S1-S2 whereas the latter four residues belong to DI S5-S6. FACS binding studies (as described above) were performed to stable CHO FlpIn cell lines expressing different variants of huNav1.7+β1−β2−β3 each including one of the four possible extracellular huNav1.7α-rhNav1.7α polymorphisms in the DI S5-S6 region: F276V, R277Q, E281V and V331M (Table 23 and FIGS. 22A-22F). Individual polymorphisms were each sufficient to abolish the binding of F0103265B04, F0103362B08, F010301080, and F0103262B06 to huNav1.7α, recapitulating the absence of binding on rhNav1.7α. F0103262CO2, F0103275B05 and F0103387G05 are more subtly affected in terms of EC50 or Bmax by some of the polymorphisms. None of the individual DI S5-S6 polymorphisms by themselves appear to have an impact on the binding of the two rhNav1.7α cross-reactive ISVDs F0103387G04 and F0103464B09. In addition, no effect on binding of the two ISVDs was observed (data not shown) for the three extracellular DIV VSD huNav1.7α-rhNav1.7α polymorphisms Q1530P, H1531Y and E1534D (FIG. 22G).

The target of assay [2] is T2, huNav1.7α(V331M) + β1-β2-β3 (human).
T2 construct: polyprotein as encoded; the entry already carries V331M; also called huNav1.7(V331M)-beta1-beta2-beta3
Kind of assay: binding FACS, CHO FlpIn cells. The protocol:
as §1, §2

Assay [3] concerns the target T3, huNav1.7α + β1-β2-β3 (human, UniProt Q15858 1-1988; A5A6L6 19-218; O60939 30-215; Q2KI11 23-215).
T3 construct: Cell line (CHO FlpIn, HEK FlpIn, transient HEK293T) is named under assay; also called huNav1.7-beta1-beta2-beta3; human Nav1.7α with Navβ1, Navβ2 and Navβ3
Kind of assay: binding FACS, CHO FlpIn cells. The protocol:
as §1, §2

The target in assay [4] is T4, huNav1.7α(R277Q) + β1-β2-β3 (human).
T4 construct: polyprotein as encoded; the entry already carries R277Q; also called huNav1.7(R277Q)-beta1-beta2-beta3
The assay can be described thus: binding FACS, CHO FlpIn cells. The protocol:
as §1, §2

In assay [5] the target is T5, rhNav1.7α + β1-β2-β3 (rhesus monkey).
T5 construct: also called rhNav1.7-beta1-beta2-beta3; rhesus Nav1.7α
Kind of assay: binding FACS, CHO FlpIn cells. The protocol:
as §1, §2

The target in assay [6] is T6, huNav1.7α(F276V) + β1-β2-β3 (human, UniProt Q15858 1-1988; A5A6L6 19-218; O60939 30-215; Q2KI11 23-215).
T6 construct: polyprotein as encoded, P2A sites liberate the subunits; the entry already carries F276V; also called huNav1.7(F276V)-beta1-beta2-beta3
Kind of assay: binding FACS, CHO FlpIn cells. How it is done: as §1, §2

Assay [7] concerns the target T3, huNav1.7α + β1-β2-β3. The assay can be described thus: binding FACS, CHO FlpIn cells. In a few lines: (§3)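 FLAG3-tagged ISVD, 30 min, 4° C, FACS buffer (PBS/10% FBS/NaN₃); 1×10^5 cells/well; detection murine anti-Flag; PI 1 μg/mL live gate; washes between steps.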
This is another data set of the same source.

In assay [8] the target is T5, rhNav1.7α + β1-β2-β3. The assay can be described thus: binding FACS, CHO FlpIn cells. In a few lines: as §3
This is another data set of the same source.

Assay [9] addresses T3, huNav1.7α + β1-β2-β3. Kind of assay: competition FACS, CHO FlpIn cells, vs EC25 of F0103275B05(N93R).
Assay [10] has as its target T5, rhNav1.7α + β1-β2-β3. Kind of assay: competition FACS, CHO FlpIn cells, vs EC40 of F0103275B05(N93R).
In assay [11] the target is T7, huNav1.7α (human Nav1.7 alpha subunit, expressed without β subunits) (human, UniProt Q15858 1-1988).
T7 construct: also called HEK293 human Nav1.7α; HEKa Nav1.7α
The assay can be described thus: binding FACS, HEKa cells.

The target of assay [12] is T8, huNav157 chimera 14 + β1-β2-β3 (human).
T8 construct: Chimera of huNav1.7α (extracellular loops and transmembrane helices) and huNav1.5α (intracellular loops); also called Nav157ch14-β1-β2-β3; huNav157 chimera 14-beta1-beta2-beta3
Kind of assay: binding FACS, HEK FlpIn cells.

Assay [13] deals with T9, huNav157 chimera 14 (human).
T9 construct: Chimera without β subunits; also called Nav157ch14
Kind of assay: binding FACS, HEK FlpIn cells.

The target of assay [14] is T10, huNav1.7α + β1-β2-β3 (human Nav1.7α co-expressed with Navβ1, Navβ2 and Navβ3) (human).
T10 construct: also called huNav1.7-beta1-beta2-beta3
The assay can be described thus: binding FACS, HEK FlpIn cells.

The target in assay [15] is T11, huNav1.7α + β1 (human Nav1.7α co-expressed with Navβ1) (human, UniProt Q15858 1-1988; Q07699 19-218).
T11 construct: also called HEK293 human Nav1.7α + β1; HEKa/β1 Nav1.7α
The assay can be described thus: binding FACS, HEKa/β1 cells.

Assay [16] addresses T11, huNav1.7α + β1 (human Nav1.7α …). The assay can be described thus: binding FACS, HEKa/β1 cells. This is another data set of the same source.
In assay [17] the target is T8, huNav157 chimera 14 + β1-β2-β3. The assay can be described thus: binding FACS, HEK FlpIn cells. The source holds these as a separate data set.
Assay [18] concerns the target T9, huNav157 chimera 14. Kind of assay: binding FACS, HEK FlpIn cells. This is another data set of the same source.
Assay [19] concerns the target T7, huNav1.7α (human Nav1.7 alpha subunit, …). Kind of assay: binding FACS, HEKa cells. The source holds these as a separate data set.
The target in assay [20] is T3, huNav1.7α + β1-β2-β3. Kind of assay: competition FACS, HEK FlpIn cells, vs EC30 of CMYC3-F0103265B04. The protocol: Competition FACS assays were performed with CMYC3-tagged ISVD F0103265B04 or F0103275B05(N93R) affinity maturation variant on a HEK FlpIn huNav1.7α+β1−β2−β3 transgenic cell line. Briefly, cells were resuspended in FACS buffer (PBS, 2% FBS, 0.05% NaN₃) and 1×10⁵ cells/well were transferred to 96-well V-bottom plates. Cells were subsequently resuspended in a 100 μL mixture of purified ISVD (dilution series) and CMYC3-tagged ISVD F0103265B04 (at a concentration equivalent to EC30) followed by incubation for 1.5 hours at 4° C. […] Between each step, the cells were centrifuged for 5 minutes at 200 g and washed with 100 μL/well FACS buffer. Prior to the read-out, the samples were resuspended in 5 nM TOPRO3 (Molecular probes, catalog #T3605) to exclude dead cells. F0103262CO2, F0103262B06, F0103265A11, F0103265B04, F0103275B05, F0103362B08, and F0103387G04 all compete with F0103265B04 for binding to huNav1.7α, in contrast to an irrelevant control ISVD (IRR) (see Table 21 and FIG. 15A, FIG. 15B, FIG. 15C, and FIG. 15D).

A further assay concerns the target huNav1.7α (human, UniProt Q15858 1-1988). The assay can be described thus: cell-based or functional assay.
The target in a further assay is huNav1.7α + β1 (human). Kind of assay: cell-based or functional assay.

Where two headings read alike, the source gives them in different places.

B1: F0103464B09 (VHH)
VHH: EVQLVESGGGLVQPGGSLRLSCATTSRAFIRDVFTGWYRRVPGKERELVARIYNGGNTNYADFAKGRFSISRDNAKKMVTLRMSNLKPEDTGVYYCLFSGTINTGREYRSGDYWGQGTLVTVSS
notes: entry includes the FLAG-HIS6 tag; also called F0103464B09 (parental)-FLAG-HIS6; F103464B09
With B1, the EC50 in assay [1] is 2.7 nM; in assay [2], 1.6 nM; with huNav1.7α + β1-β2-β3 [3], 3.4 nM; in assay [4] it was 2.6 nM; with rhNav1.7α + β1-β2-β3 [5] it was 31 nM; in [6], 2.7 nM. Also, the EC50 is 5.4 nM with huNav1.7α + β1-β2-β3 [7] and 33 nM with rhNav1.7α + β1-β2-β3 [8]. Besides, in the assay with rhNav1.7α + β1-β2-β3 [8], the Bmax came to 54%. Further, the values for the concentration for half-maximal inhibition (IC50) in the assay with huNav1.7α + β1-β2-β3 [9] and with rhNav1.7α + β1-β2-β3 [10] were 12 nM and 79 nM, respectively.

B2: F0103387G05 (parental)-FLAG-HIS6 (VHH)
VHH: EVQLVESGGGLVQAGGSLRLSCDASGRILRIGYMRWHRQGAGKQREFVARITDDSATDYADSVKGRFTISRDNAKNTVYLQMNNLNPEDTAVYYCEALVTASVRGGSIHSGTYWGRGTLVTVSS
With B2, the Bmax (in assay [11]; in the assay with huNav157 chimera 14 [13]) was 100% in each case. For the same molecule, the EC50 was found to be 3.1 nM in assay [11]; 3.6 nM in [12]; 2.8 nM in the assay with huNav157 chimera 14 [13]; 2.7 nM in [14]; 1.9 nM in assay [15]; 1.9 nM in assay [16]. In addition, the 50% effective concentration (EC50) was 3.6 nM in assay [17], 2.8 nM in the assay with huNav157 chimera 14 [18] and 3.1 nM in assay [19].

B3: F0103387G05 (VHH)
VHH: EVQLVESGGGLVQAGGSLRLSCDASGRILRIGYMRWHRQGAGKQREFVARITDDSATDYADSVKGRFTISRDNAKNTVYLQMNNLNPEDTAVYYCEALVTASVRGGSIHSGTYWGRGTLVTVSS
notes: entry includes the FLAG-HIS6 tag; also called F0103387G05 (parental)-FLAG-HIS6
For B3, the concentration for a half-maximal effect (EC50) in [1] was 2.3 nM; in assay [2], 5.9 nM; in the assay with huNav1.7α + β1-β2-β3 [3], 2.6 nM; in assay [4], 2.2 nM; in [6], 2.4 nM. The results for the IC50 with huNav1.7α + β1-β2-β3 [20] and with huNav1.7α + β1-β2-β3 [9] were 9.4 nM and 10 nM, respectively. In addition, the binding result with rhNav1.7α + β1-β2-β3 [10] is recorded as “no binding”.

B4: F0103265B04-FLAG3-HIS6 (VHH)
VHH: EVQLVESGGGLVQPGGSLRLSCAAPSFIFSNNYMEWYRQAPGKQRDWVARITGRGNTNYLDSVKGRFTISRDDAKNTVYLEIDSLKPEDTAVYYCSALWYGGRAWGKGTLVTVSS
As to B4, the “Qpatch IC50 [M], HEK cells” value with huNav1.7α worked out at 1.2e-07 M. For the same molecule, in the assay with huNav1.7α + β1, the “Qpatch IC50” value amounted to 120 nM.
